In publication PMC4990970 (2016):

B1: ATPase domain of human Hsp70 (called Hsc70 in the results) (domain or fragment)
chain: not shown
B2: ATPase domain of human Hsp70 (called Hsc70 in the results) (domain or fragment)
chain: not shown
modifications: CaM Ca2+-saturated (holo, 4 Ca2+; 10 mM CaCl2). AtBAG5-long limits are printed. CaM is full length with the initiator Met removed by convention. CaM species is not printed: Met144 in mature numbering fits vertebrate CaM rather than plant CaM (Val144).

Key:
[1] = biological target: AtBAG5-IQR (AtBAG5-long with Ile57, Gln58 and Arg62 substituted with alanine) (Arabidopsis thaliana, UniProt O65373 49-153, Ile57 to alanine | Gln58 to alanine | Arg62 to alanine); experiment: ITC
[2] = biological target: AtBAG5-CaM (with Ca2+); experiment: ITC; with Ca2+ (AtBAG5/holo-CaM complex)
[3] = biological target: AtBAG5/holo-CaM (Arabidopsis thaliana (AtBAG5); Homo …); experiment: ITC; with Ca2+; AtBAG5 pre-bound to holo-CaM

Row | Binder | Kd [1] [µM] | Kd [2] [µM] | Kd [3] [µM]
1 | B1 | 0.48 | 53.3 | –
2 | B2 | – | – | 53.3
